Experimental data from article PMC4549301 (2015).

B1: GST–HCF-1rep1, wild type (HCF-1 residues 867–1071) [human] / Recombinant human O-linked β-N-acetylglucosamine transferase (OGT), wild type [human] (parent complex)
chain 1: PAVTTLVVKGTTGVTTLGTVTGTVSTSLAGAGGHSTSASLATPITTLGTIATLSSQVINPTAITVSAAQTTLTAAGGLTTPTITMQPVSQPTQVTLITAPSGVEAQPVHDLPVSILASPTTEQPTATVTIADSGQGDVQPGTVTLVCSNPPCETHETGTTNTATTTVVANLGGHPQPTQVQFVCDRQEAAASLVTSTVGQQNGSV
chain 2: MASSVGNVADSTGLAELAHREYQAGDFEAAERHCMQLWRQEPDNTGVLLLLSSIHFQCRRLDRSAHFSTLAIKQNPLLAEAYSNLGNVYKERGQLQEAIEHYRHALRLKPDFIDGYINLAAALVAAGDMEGAVQAYVSALQYNPDLYCVRSDLGNLLKALGRLEEAKACYLKAIETQPNFAVAWSNLGCVFNAQGEIWLAIHHFEKAVTLDPNFLDAYINLGNVLKEARIFDRAVAAYLRALSLSPNHAVVHGNLACVYYEQGLIDLAIDTYRRAIELQPHFPDAYCNLANALKEKGSVAEAEDCYNTALRLCPTHADSLNNLANIKREQGNIEEAVRLYRKALEVFPEFAAAHSNLASVLQQQGKLQEALMHYKEAIRISPTFADAYSNMGNTLKEMQDVQGALQCYTRAIQINPAFADAHSNLASIHKDSGNIPEAIASYRTALKLKPDFPDAYCNLAHCLQIVCDWTDYDERMKKLVSIVADQLEKNRLPSVHPHHSMLYPLSHGFRKAIAERHGNLCLDKINVLHKPPYEHPKDLKLSDGRLRVGYVSSDFGNHPTSHLMQSIPGMHNPDKFEVFCYALSPDDGTNFRVKVMAEANHFIDLSQIPCNGKAADRIHQDGIHILVNMNGYTKGARNELFALRPAPIQAMWLGYPGTSGALFMDYIITDQETSPAEVAEQYSEKLAYMPHTFFIGDHANMFPHLKKKAVIDFKSNGHIYDNRIVLNGIDLKAFLDSLPDVKIVKMKCPDGGDNADSSNTALNMPVIPMNTIAEAVIEMINRGQIQITINGFSISNGLATTQINNKAATGEEVPRTIIVTTRSQYGLPEDAIVYCNFNQLYKIDPSTLQMWANILKRVPNSVLWLLRFPAVGEPNIQQYAQNMGLPQNRIIFSPVAPKEEHVRRGQLADVCLDTPLCNGHTTGMDVLWAGTPMVTMPGETLASRVAASQLTCLGCLELIAKNRQEYEDIAVKLGTDLEYLKKVRGKVWKQRISSPLFNTKQYTMELERLYLQMWEHYAAGNKPDHMIKPVEVTESA

Variants of: B1
Assay: in vitro HCF-1rep1-OGT binding assay (OGT pull-down, quantified immunoblot); in the presence of UDP-GlcNAc; read off a plot

screen value [log2 fold change] | Variant
~-0.55 | chain 1 PAVTTLVVKGTTGVTTLGTVTGTVSTSLAGAGGHSTSASLATPITTLGTIATLSSQVINPTAITVSAAQTTLTAAGGLTTPTITMQPVSQPTQVTLITAPSGVEAQPVHDLPVSILASPTTEQPTATVTIADSGQGDVQPGTVTLVCSNPPAETHETGTTNTATTTVVANLGGHPQPTQVQFVCDRQEAAASLVTSTVGQQNGSV [chain 1 C152A]
~-1.1 | chain 1 PAVTTLVVKGTTGVTTLGTVTGTVSTSLAGAGGHSTSASLATPITTLGTIATLSSQVINPTAITVSAAQTTLTAAGGLTTPTITMQPVSQPTQVTLITAPSGVEAQPVHDLPVSILASPTTEQPTATVTIADSGQGDVQPGTVTLVCSNPPCETHATGTTNTATTTVVANLGGHPQPTQVQFVCDRQEAAASLVTSTVGQQNGSV [chain 1 E156A]
~-1.7 | chain 1 PAVTTLVVKGTTGVTTLGTVTGTVSTSLAGAGGHSTSASLATPITTLGTIATLSSQVINPTAITVSAAQTTLTAAGGLTTPTITMQPVSQPTQVTLITAPSGVEAQPVHDLPVSILASPTTEQPTATVTIADSGQGDVQPGTVTLVCSNAPCETHETGTTNTATTTVVANLGGHPQPTQVQFVCDRQEAAASLVTSTVGQQNGSV [chain 1 P150A]
~-0.5 | chain 1 PAVTTLVVKGTTGVTTLGTVTGTVSTSLAGAGGHSTSASLATPITTLGTIATLSSQVINPTAITVSAAQTTLTAAGGLTTPTITMQPVSQPTQVTLITAPSGVEAQPVHDLPVSILASPTTEQPTATVTIADSGQGDVQPGTVTLVCSNPPCETAETGTTNTATTTVVANLGGHPQPTQVQFVCDRQEAAASLVTSTVGQQNGSV [chain 1 H155A]
~0.3 | chain 1 PAVTTLVVKGTTGVTTLGTVTGTVSTSLAGAGGHSTSASLATPITTLGTIATLSSQVINPTAITVSAAQTTLTAAGGLTTPTITMQPVSQPTQVTLITAPSGVEAQPVHDLPVSILASPTTEQPTATVTIADSGQGDVQPGTVTLVCSNPPCEAHETGTTNTATTTVVANLGGHPQPTQVQFVCDRQEAAASLVTSTVGQQNGSV [chain 1 T154A]
~-3 | chain 1 PAVTTLVVKGTTGVTTLGTVTGTVSTSLAGAGGHSTSASLATPITTLGTIATLSSQVINPTAITVSAAQTTLTAAGGLTTPTITMQPVSQPTQVTLITAPSGVEAQPVHDLPVSILASPTTEQPTATVTIADSGQGDVQPGTVTLVCSNPPCETHEAGTTNTATTTVVANLGGHPQPTQVQFVCDRQEAAASLVTSTVGQQNGSV [chain 1 T157A]
~-0.7 | chain 1 PAVTTLVVKGTTGVTTLGTVTGTVSTSLAGAGGHSTSASLATPITTLGTIATLSSQVINPTAITVSAAQTTLTAAGGLTTPTITMQPVSQPTQVTLITAPSGVEAQPVHDLPVSILASPTTEQPTATVTIADSGQGDVQPGTVTLVCSNPACETHETGTTNTATTTVVANLGGHPQPTQVQFVCDRQEAAASLVTSTVGQQNGSV [chain 1 P151A]
